From publication PMC11211670 (mLife, 2024)

B1: Escherichia coli CTP synthase (cytidine triphosphate synthase) (enzyme, UniProt P0A7E5 1-545, looked up)
chain: MTTNYIFVTGGVVSSLGKGIAAASLAAILEARGLNVTIMKLDPYINVDPGTMSPIQHGEVFVTEDGAETDLDLGHYERFIRTKMSRRNNFTTGRIYSDVLRKERRGDYLGATVQVIPHITNAIKERVLEGGEGHDVVLVEIGGTVGDIESLPFLEAIRQMAVEIGREHTLFMHLTLVPYMAASGEVKTKPTQHSVKELLSIGIQPDILICRSDRAVPANERAKIALFCNVPEKAVISLKDVDSIYKIPGLLKSQGLDDYICKRFSLNCPEANLSEWEQVIFEEANPVSEVTIGMVGKYIELPDAYKSVIEALKHGGLKNRVSVNIKLIDSQDVETRGVEILKGLDAILVPGGFGYRGVEGMITTARFARENNIPYLGICLGMQVALIDYARHVANMENANSTEFVPDCKYPVVALITEWRDENGNVEVRSEKSDLGGTMRLGAQQCQLVDDSLVRQLYNAPTIVERHRHRYEVNNMLLKQIEDAGLRVAGRSGDDQLVEIIEVPNHPWFVACQFHPEFTSTPRDGHPLFAGFVKAASEFQKRQAK
notes: CTP synthase of Escherichia coli, full-length gene in pET28a; In the cryo-EM sample it forms tetramers that stack into filaments; also called ecCTPS; wild-type ecCTPS; source: E. coli Transetta (DE3), purified (Ni-Agarose, Superose 6 Increase)
B2: ecCTPS with an inserted hCTPS helix 12 (ecCTPS^helix12+) (enzyme, Escherichia coli | human)
chain: MTTNYIFVTGGVVSSLGKGIAAASLAAILEARGLNVTIMKLDPYINVDPGTMSPIQHGEVFVTEDGAETDLDLGHYERFIRTKMSRRNNFTTGRIYSDVLRKERRGDYLGATVQVIPHITNAIKERVLEGGEGHDVVLVEIGGTVGDIESLPFLEAIRQMAVEIGREHTLFMHLTLVPYMAASGEVKTKPTQHSVKELLSIGIQPDILICRSDRAVPANERAKIALFCNVPEKAVISLKDVDSIYKIPGLLKSQGLDDYICKRFSLNCPEANLSEWEQVIFEEANPVSEVTIGMVGKYIELPDAYKSVIEALKHGGLKNRVSVNIKLIDSQDVETRGVEEEPVRYHEAWQILKGLDAILVPGGFGYRGVEGMITTARFARENNIPYLGICLGMQVALIDYARHVANMENANSTEFVPDCKYPVVALITEWRDENGNVEVRSEKSDLGGTMRLGAQQCQLVDDSLVRQLYNAPTIVERHRHRYEVNNMLLKQIEDAGLRVAGRSGDDQLVEIIEVPNHPWFVACQFHPEFTSTPRDGHPLFAGFVKAASEFQKRQAK
notes: E. coli CTP synthase, the stretch before the insertion; Helix 12 of human CTPS1, inserted; H346 and W349 of the variant correspond to H355 and W358 of hCTPS1; E. coli CTP synthase, the stretch after the insertion; It ends with HHHHHH, which is written here as the tag; also called engineered ecCTPS

Tests used:
[1] = molecular target: the molecule itself; test: cryo-EM structure; 7 uM ecCTPS incubated with 0.58 mM DON, 1 mM CTP, 0.5 mM NADH and 10 mM MgCl2 for 30 min at 0 °C; single particle analysis of filaments, D2 symmetry, mask on the central tetramer
[2] = molecular target: the molecule itself; test: cryo-electron micrographs of filaments; purified ecCTPS^helix12+ in the product state (CTP); filaments seen in cryo samples

Protein | stoichiometry N [1] | binding result [2]
B1 | 4 | 
B2 |  | binds
